The text below walks through data of patent CN116082503A.

For the assay, the target named is T细胞表面未知蛋白 (unknown protein on the surface of CD3+ T cells). The assay can be described thus: cell-based or functional assay.

Turning to “IGSF9-ECD-His (带有His标签的人IGSF9胞外区蛋白) (receptor)”, the T细胞增殖抑制, 剂量依赖 (dose at which inhibition of T cell proliferation becomes evident) was more than 0.5 µg.
